# In the supplement of paper PMC9112550, “Optimization of the antimicrobial peptide Bac7 by deep mutational scanning” (BMC Biology, 2022):
# Test system: Escherichia coli TOP10
# Test: shrunken log2 fold change of peptide-encoding DNA abundance (4.5 h post-induction vs induction); higher = less antimicrobial activity (less host growth inhibition)
# Conditions: time post-induction: 4.5 h; library: site-saturation at positions 5, 18, 19, 20
# 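Also: peptides expressed intracellularly from a pBAD plasmid library in pooled LB shake-flask culture, induced with 0.3% L-arabinose, DNA abundance read by NGS, three biological replicates, DESeq2 with apeglm shrinkage.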
row,Sequence,shrunken log2 fold change
1,RRIRFRPPRLPRPRPRPSAAPRP,0.346
2,RRIRFRPPRLPRPRPRPSADPRP,0.157
3,RRIRFRPPRLPRPRPRPSANPRP,-0.395
4,RRIRFRPPRLPRPRPRPSCGPRP,-0.235
5,RRIRFRPPRLPRPRPRPSCNPRP,-0.714
6,RRIRFRPPRLPRPRPRPSCPPRP,-0.72
7,RRIRFRPPRLPRPRPRPSDRPRP,-0.853
8,RRIRFRPPRLPRPRPRPSESPRP,-0.0918
9,RRIRFRPPRLPRPRPRPSFDPRP,-0.62
10,RRIRFRPPRLPRPRPRPSFGPRP,-0.112
11,RRIRFRPPRLPRPRPRPSGKPRP,-0.0093
12,RRIRFRPPRLPRPRPRPSHYPRP,-0.762
13,RRIRFRPPRLPRPRPRPSKQPRP,-0.101
14,RRIRFRPPRLPRPRPRPSKVPRP,-0.293
15,RRIRFRPPRLPRPRPRPSLCPRP,-0.348
16,RRIRFRPPRLPRPRPRPSLGPRP,0.0257
17,RRIRFRPPRLPRPRPRPSLHPRP,-0.558
18,RRIRFRPPRLPRPRPRPSLKPRP,-0.196
19,RRIRFRPPRLPRPRPRPSMMPRP,-0.941
20,RRIRFRPPRLPRPRPRPSNAPRP,-0.165
21,RRIRFRPPRLPRPRPRPSQRPRP,0.384
22,RRIRFRPPRLPRPRPRPSRRPRP,-0.0576
23,RRIRFRPPRLPRPRPRPSVAPRP,0.882
24,RRIRFRPPRLPRPRPRPSVFPRP,-0.165
25,RRIRFRPPRLPRPRPRPSVSPRP,-0.2

row,Sequence,shrunken log2 fold change
1,RRIRFRPPRLPRPRPRPSWDPRP,-0.152
2,RRIRFRPPRLPRPRPRPSYDPRP,-0.0248
3,RRIRFRPPRLPRPRPRPTCGPRP,0.00559
4,RRIRFRPPRLPRPRPRPTEVPRP,-0.0247
5,RRIRFRPPRLPRPRPRPTFAPRP,0.0698
6,RRIRFRPPRLPRPRPRPTFIPRP,-0.44
7,RRIRFRPPRLPRPRPRPTGCPRP,0.125
8,RRIRFRPPRLPRPRPRPTKFPRP,-0.355
9,RRIRFRPPRLPRPRPRPTKSPRP,0.106
10,RRIRFRPPRLPRPRPRPTKTPRP,-0.0652
11,RRIRFRPPRLPRPRPRPTMAPRP,0.185
12,RRIRFRPPRLPRPRPRPTNMPRP,-0.712
13,RRIRFRPPRLPRPRPRPTPIPRP,0.485
14,RRIRFRPPRLPRPRPRPTSDPRP,-0.206
15,RRIRFRPPRLPRPRPRPTSFPRP,0.0329
16,RRIRFRPPRLPRPRPRPTSRPRP,-0.291
17,RRIRFRPPRLPRPRPRPTVSPRP,-0.00542
18,RRIRFRPPRLPRPRPRPTWDPRP,0.0928
19,RRIRFRPPRLPRPRPRPTWLPRP,0.299
20,RRIRFRPPRLPRPRPRPVAFPRP,-0.141
21,RRIRFRPPRLPRPRPRPVCAPRP,0.198
22,RRIRFRPPRLPRPRPRPVCDPRP,-0.255
23,RRIRFRPPRLPRPRPRPVCEPRP,0.182
24,RRIRFRPPRLPRPRPRPVCKPRP,-0.139
25,RRIRFRPPRLPRPRPRPVECPRP,-0.17

row,Sequence,shrunken log2 fold change
1,RRIRFRPPRLPRPRPRPVESPRP,-0.0712
2,RRIRFRPPRLPRPRPRPVFNPRP,-0.461
3,RRIRFRPPRLPRPRPRPVGLPRP,0.0115
4,RRIRFRPPRLPRPRPRPVIQPRP,-0.414
5,RRIRFRPPRLPRPRPRPVISPRP,-0.674
6,RRIRFRPPRLPRPRPRPVKGPRP,-0.178
7,RRIRFRPPRLPRPRPRPVKIPRP,-0.0378
8,RRIRFRPPRLPRPRPRPVKLPRP,0.294
9,RRIRFRPPRLPRPRPRPVKMPRP,-0.0692
10,RRIRFRPPRLPRPRPRPVKNPRP,-0.0401
11,RRIRFRPPRLPRPRPRPVLRPRP,0.113
12,RRIRFRPPRLPRPRPRPVMEPRP,0.352
13,RRIRFRPPRLPRPRPRPVNTPRP,-0.377
14,RRIRFRPPRLPRPRPRPVPQPRP,0.261
15,RRIRFRPPRLPRPRPRPVQEPRP,0.0623
16,RRIRFRPPRLPRPRPRPVRTPRP,0.227
17,RRIRFRPPRLPRPRPRPVTTPRP,0.173
18,RRIRFRPPRLPRPRPRPVVHPRP,-0.106
19,RRIRFRPPRLPRPRPRPVWAPRP,0.137
20,RRIRFRPPRLPRPRPRPVWKPRP,-0.0844
21,RRIRFRPPRLPRPRPRPVYSPRP,-0.12
22,RRIRFRPPRLPRPRPRPVYTPRP,-1.09
23,RRIRFRPPRLPRPRPRPWAWPRP,0.174
24,RRIRFRPPRLPRPRPRPWAYPRP,-0.201
25,RRIRFRPPRLPRPRPRPWDEPRP,-0.264
